Results taken from patent publication US20240026407A1, “MODIFICATION OF SAPONINS” (GLAXOSMITHKLINE BIOLOGICALS SA, priority 2020, published 2024).

Columns and labels:
Assay type in all cases: biochemical, Quillaja saponaria
[1] = Experiment 5-3: screening of additional glucosidases for deglycosylation with QS-18 in treated bark extract (80%) at pH 6 and 35 deg C; settings: TBE 80% (QS-21 approx. 4 g/L), pH 6, 35 deg C; UV HPLC
Method: Experiment 5-1 was repeated, replacing CBE with Treated Bark Extract (TBE) at pH 6. TBE was prepared from CBE by PVPP treatment and concentration, to provide TBE with a QS-21 concentration of approximately 4 g/L. TBE was adjusted to pH 6 by dropwise addition of 2M NaOH with stirring.

[2] = Experiment 5-2: screening of additional glucosidases for deglycosylation with QS-18 in crude bark extract (80%) at pH 6 and 35 deg C; settings: CBE 80%, pH 6, 35 deg C, 18 hours; UV HPLC
Method: A plate was lysed at pH 6 as described in Experiment 4-2. 40 uL of clarified lysate was transferred to a reaction plate
The pH of CBE was adjusted to pH 6 by dropwise addition of 2M NaOH with stirring. 160 uL of pH 6 CBE was added to each well of the reaction plate. The reaction plate was sealed and incubated at 35 deg C. with shaking for 18 hours.
The reaction plate was quenched by adding 200 uL of MeCN (2% acetic acid (AcOH), 1 mg/mL hexanophenone) to each well of the plates. The quenched reaction plate was re-sealed and incubated at 20 deg C. with shaking for 10 min. The reaction plate was then centrifuged (10 min, 4 degC).
200 uL was transferred from each well of the quenched plate to the corresponding wells of a fresh 96 well plate and sealed. The plate was analysed by UV HPLC with the method of Experiment 4-4.

[3] = Experiment 5-1: screening of additional glucosidases for deglycosylation with purified QS-18 (0.04 mg/ml) at pH 7.5 and 30 deg C; settings: pH 7.5, 30 degrees C, 18 hours, LCMS/MS
Method: The 94 additional genes, together with positive control (DNA encoding SEQ ID No. 262) and negative control, were transformed, expressed, lysed and reacted in the same manner as described above for Experiment 4-1, except the reaction was incubated at 30 degrees C. for 18 hours.
Samples were analysed by LCMS/MS according to the procedure in Experiment 4-1.

Molecule	Experiment 5-3 % conv [1] [%]	Experiment 5-2 % conv [2] [%]	Experiment 5-1 % conv [3] [%]
816 (protein, Microbacterium hydrocarbonoxydans) MTASTDHLRPLLEKLSLEQKAALVQGADFWTTVPLPEIGLRALTLSDGPAGVRGPRWDEREPSLNLPSGSALAASWDVDLAYRYGAAAASEARRKGVDVVLGPTINLHRSPLGGRHFECLSEDPELTAELGAAYVRGMQENGVAATPKHYVANDSETDRFTVDVEVDERTLREVYLAPFERAVEAGAWSVMSAYNSVDGVTMTENDLLENPLNSEWGFDGVVVSDWTAVRSLDAVAAAQDLAMPGPAPAWADLVDAVHDGRVDEADIDRKVLRILLLAERVGALEGADAVAPAPLDGPAFAKEAAVEGTVLLQNSGVLPLDLAGLTKVAIIGHNAKDARTQGGGSATVLPEKVVSPLDAIRAALPAAEVSYEIGAVVQEGVAEIPLASIENPVTGGPGVRVSFHGADGTELFAEDRRATALVWFGGDAPIGASRTIVLETRYTPAESGEIQLGFAGANPGRIFVDGELVLDDVPVIEGTDLGAAFLNPPSITSAVTVEAGRAVDLRAEFTRESRGALDGALSVTLGIAPERTDPDELIARAAAAASAAEVAVVVVGTNSKVESEGYDRVDLDLPGRQDDLVRAVAATGTPTVVVVNAGSPVVLPWAGEVAAIVQGYFGGQEFGHAIAEVLTGAAEPGGRLPTTWPAALADVPVADVTPVDGRLVYAEGLHIGYRAWLKDDVQPAFPFGHGLGYTTWSWGTAQRHDDTVEVTLANTGEREGKQVVQVYAERADSTVDRPARWLVGFAVVHAEPGRTVTAVVPVPARRLAHWAGEWVVEPGAYTLRVGSSVADLPLSVEWVQA	<0.5	<0.5	73.5
891 (protein, listed as Pseudarthrobacter chlorophenolicus) MNPTLPAAATVPAVGSPDAEARIRDLAESLTLEQQVQLLTGADVWSTHALPAIGLSRVVMSDGPAGVRGEDFDERHDSVSLPSSSALSATWSVDLARRYGQVLGQEARRKGVHAVLGPTINLHRSPLGGRHFECMSEDPRLTATIAAGYVAGVQSMGVGATPKHYLANEAETDRFTSDSVVDERPLRELYLAAFEDAVTEARAWLVMSSYNSINGTTASENDLLETPLSTEWGFDGVVVSDWTGVRSVDAANAHQDLEMPGPVGHWGPKLLAAVGDGRVSRTAILDKVVRILRLAARVGSLDGVSPAVTELPAPLNAPAVAREVAVRGAVLVRNKDGLLPLDPAALGSVAVSGHNAEEARTQGGGSATVMPKQNISPLEGLREALPANVAISYHRGAKVAEGLQAFPRTSLHNPVSNVPGLRVTFLAADGTELSGEDRLASHLIWFGIGIPEGAAAIRMETDWTAPSAGTHHLGLGTVGRIRLSLRGQEVFNGDIEDETEVLGAALFDPPKTVHAIETEAGERVRIEALFELPADQAIPFTAILLGEETVVADPQAEIDAAVEAARTADVAVVVVGTSAAIESEGFDRKDLDLPGHQNRLVEAVAAANPRTVVVVNSGSPVLMPWLDKVGAVLLGWFGGQEFGRAIADILLGAEEPGGRLPTTWPAALEDVPVLDTTPMDGKVVYSEGIHVGYRAWLKQQAAGGAAPALPFGYGLGYTTFELCTPHASQAVPAGKDVVVHVPVRNTGTRAGREVVQVYLERPESAVERPVRWLAGYAGTHLAAGGTSSVEVRIPGRAFAHYDGGWQVEPGTFRILVGRHSADGFQALDIDVR	<0.5	<0.5	74.7
853 (protein, listed as Clostridium oryzae) MKRDIKEIVSKMTLEEKAGLCSGLDFWHTKGVERLGVPSIMVTDGPHGLRKQDTSADHLGINDSVPATCFPSGATLACSWDRSLLQKVGTALGEECQAEGVSVILGPAANIKRSPLCGRNFEYFSEDPYLSTEMAANHIKGVQSQGVGTSLKHFAVNNQEHRRLSVDAEVDERTLREIYLASFEGAVKQSQPWTVMCSYNKVNGTYASENEYLLTSILKEEWGHEGFVMSDWGAVDRRENALKAGLELEMPSSNGIGDNRIVQAVKNGELKEEVLDKAVERLLNIIFKAVDNKKEGAVYDREQHHSLARKIAGECMVLLKNEDNILPLKKEGKIAVIGGFVDKYRYQGGGSSHIKPNKLDNAAEELKKAAKGENIVFAKGFSLDNDEVDSKLMEEAKNAAASAETAVIFAGLPDRYESEGYDRSHMRIPDNQIALINAIAEVQKNIVVVLSNGSPIEMPWIGNVKGILEAYLGGEAGAGAIADILFGEVNPSGKLAESFPKKLSDNPSYLNFPGEGDTVEYKEGLFVGYRYYDKKEVETLFPFGYGLSYTTFEYKNITVDKKNITDEEKLVVKVTVKNTGKLTGKEIVQLYVRDVESSVIRPVKELKGFEKVELAAGEEKTVEFVLDKRTFAYYNVDIKDWYVESGDFEILIGSSSKDIYLKDVVNVEGTTAVKKIYTRNSTVGDVMANPQARKLTEELLSSTFGQGTDDSENLGTDMTAMMKDMTLRSILHFGGDKSKEKELDKILEMLNK	2.5	<0.5	67.7
827 (protein, listed as Bionectria ochroleuca) MAPTDVNAVLSKLTLEEKISILAGADFWQTVPIPEKGVPALKTSDGPNGARGETFSGGVTAACFPAACSVASTFDVDIARRIGVALGEETLTKGARCLLGPTICGHRHPLGGRNFESFSEDPFLAGTLASQSVQGIQSTGVAATMKHYAVNEQETERLSVDEIVDERTMREIYLRPFERVVKEAKPAAVMTGYNQVNGSHCDSHEFLLKQVLRGEWGWDGLVMSDWGGVNSVAESLNAGLDLEMPGPTRWRKVDEVVAAVKAGKVSEETINDRAIHVLRFLERQNCFKDPTIPPEQAVNKPEHQALIREAGSKGIVLLKNNDNVLPLTKEKARGKKIALLGLAKESLAHGGGSASLNAHYKITPWDALQEAYKGENVEFTYAKGAHTLRQLPVITKNVVDVDGKPGFTWRSYHVGESQPYNTVGGHAKSEISLLDGLNMVNTSIELEGTFTASESATYYFTLSGLGPSSVAINGTVVFEQEDNCSDPMGFLLGGVASPLVKYEFESGKQYKILLKSTPPAPVEGVDLGILEGKVGVRLGNMSASEHDKDILTEAIDLAKAADYAIVFTGHDPSWETEGQDQHSFNLPKDGSQDRLVSGVAAVNQNTIVVNSTGVAVAMPWLDEIKSLVHTWFPGQEAGNSIADVLTGERNPEGHLTCTFPKRLEDCPAYGNFPGEYNGRQLTVKYAEGVFVGYRHFDRLPAEKVNFPFGFGLSYTTFGFSDFDVKPTAAGDEWTASVKVTNTGSVKGAIAVQLYVGNSKTSPENPVKSLVSFKKVTLAAGGSAVVELPAQGRDIAFWSQQEHKWVLEAGEYNFSVGKSAGDLVATATVQVGGKTYAP	<0.5	<0.5	69.2
857 (protein, listed as Streptomyces venezuelae) MTETGAHTAADAARESVVEAALAKLDLDSKTRLLAGQDMWSLPALPEIGLTSLVMSDGPIGVRGVRWTADDPSVALPSPTALAAAWDPALARRAGRLLAQEARRKGVHVLLAPTVNLHRTPLGGRHFEAYSEDPLLTGAIGTGYVQGVQDGGVGTTVKHFVANDAETDRFTVDNRIAPRPLRELYLAPFEAIVKNAHPWGIMTAYNQVNGVTMTEHRHLVNEVLRGEWGFDGFNVSDWMAARSTTGDIEGGLDVAMPGPQTVYGEALAAAVRAGEVEESTVDAAVRNVLRLAARVGALEGAPPVVTDPPAAIDGDALAREIAHRGFVLVRNENGALPLKNGTVALSGAAARDARVLGGGSAQVFPEHIVSPLDGLTAALPEGALTYTIGADPSDELTPADQGFTLRAVCRDASGTVLGEGTLPNGQVQWIGDDLPAGVTHEALASIEVVGRFTPRETGEHAFGTRGLGAFRLSVDGETLFDGVQALGPETDPFEAFFGSPVERAKVVLTAGETVDVSLLHTLDKEFAAPLPAVMFSFVHLGPRRDPDELIAEAVEAARAADTAVVVVATTERVESEGFDRKDLALPGRQDDLVRAVAAANPNTVVVVNAGSPVELPWREEVAAVLLSWFPGQEGGAALADVLTGAEEPGGRLPTTWPAALADAPVTEVTPTGGELDYAEGVFIGYRAWDKAGAVPAYAFGHGLGYTTWTYESLTARPGTATVRLTNTGDRPGREVVQVYLAPVDDGVERPARWLAGFGCVEAGPGETVETEIALPRRAFEIWDEEKNDWSFVGGAYEVLAARSLTDARLSATLEV	<0.5	<0.5	69.0
842 (protein, listed as Nonomuraea sp.) MNLQDKASLLSGRDFWSTKPVGDVPAAVLSDGPHGVRRQTGEADHVGIHESLPATCFPPAVAVGSSWDPAVAGRLAAAVAVEARALDVQINLGPGVNIKRSPLCGRNFEYYSEDPLLTGVLAAAHVEALQAGGVGASVKHFAANNQETGRMRVSAEIDERTLREIYLPAFERVVKHARPATVMAAYNKVNGVYASQHPWLLTRVLREEWGFDGVVVSDWGAVNDRVAALKAGLDLEMPGNPANDAMIVQAVRDGELDEAVVDRSVARVRAMVRAWRPEPAAFDADAHHALARELAAECAVLLKNDGDTLPIRADVQTIAVLGPFATEPRFQGGGSSHVTPTRVDSPLEEIRRLAGDRVVTADPDDADLAIVFAGPADLDESEGYDRAGLDLPAEQVELIRATAAAARRTVVVLSNGGVVSLEGWHDEVDAILEGWLLGQAGGGAIADLLFGVAAPSGRLAETIPMRLQDTASYLNFPGEQDVVRYGEGVMVGYRYHETAGRPVRYPFGHGLTYTTFAVSDLTVRVTGDDSARVSVTVANTGRRYGKHVVQLYVATQAGPVRRPARELRAFTKVGLEPGRSTTVTFDLDARAFAYWDVKEGRWLVAPGDYTVQIGENASAVVAEETIELAGEVIARELTLDSSVGEWFAHPQVGPVLMRHVAATMTEEQRAAAAEHQDLLRMIESLPMHQFLSPMGVRLPDQAVREMMELSRRPQ	<0.5	<0.5	64.0
